Assay results reported in US8227212B2, “Cell that expresses a sulfatase and a formylglycine generating enzyme” (Shire Human Genetic Therapies, Inc., priority 2003, dated 2012).

Columns and labels:
ARSA, ARSC and ARSE = assay: Co-expression of FGE (SUMF1) and sulfatase cDNAs in cell lines, sulfatase activities; assay type: cell-based, human; settings: co-transfection with ARSA, ARSC and ARSE cDNAs in various cell lines
Description: To test the effect of FGE (SUMF1) on additional sulfatase activities in normal cells we overexpressed ARSA (SEQ ID NO:14), ARSC (SEQ ID NO:18) and ARSE (SEQ ID NO:22) cDNAs in various cell lines with and without co-transfection of the FGE (SUMF1) cDNA and measured sulfatase activities.
To test for functional conservation of the FGE (SUMF1) gene during evolution we overexpressed ARSA, ARSC and ARSE cDNAs in various cell lines with and without co-transfection of the […] and measured sulfatase activities.

MKI mice = assay: Pharmacodynamic study in MKI mice (GALNS deficient, Morquio Knock-In); assay type: in vivo; settings: weekly IV 2 mg/kg over 16 weeks
Description: The primary cause of skeletal pathology in Morquio patients is keratan sulfate (KS) accumulation in epiphyseal disk (growth plate) chondrocytes due to deficiency of the lysosomal sulfatase, GALNS. The primary objective of in vivo research studies was to determine whether intravenously (IV) administered FGE-activated GALNS was able to penetrate chondrocytes of the growth plate as well as other appropriate cell types in normal mice.
Four-week-old MKI or wild-type mice were given weekly IV injections (n=8 per group) through 20 weeks of age. Each weekly injection consisted of either 2 mg/kg FGE-activated GALNS or vehicle control (no injection for wild-type mice). All mice were sacrificed for histological examination at 20 weeks of age and stained using the following methods: hematoxylin and eosin for cellular morphology, alcian blue for detection of GAGs.

[1] = Biodistribution study of IV FGE-activated GALNS in ICR (normal) mice; assay type: in vivo; settings: single IV injection of 5 mg/kg, two hours after injection
Protocol: Four-week-old ICR (normal) mice were given a single IV injection of 5 mg/kg FGE-activated GALNS. Liver, femur (bone), heart, kidney and spleen were collected two hours after injection and prepared for histological examination. A monoclonal anti-human GALNS antibody was used to detect the presence of injected GALNS in the various tissues. […] Moreover, GALNS was readily observed in all tissues examined using a horseradish-peroxidase reporter system, […].

| Molecule | activity of FGE homologs on overexpressed human sulfatases (ARSA, ARSC and ARSE) | chondrocytes in the calcification zone of the growth plate (MKI mice) | vacuolized chondrocytes of the hypertrophic and proliferating zones of the growth plate (MKI mice) | clearance of accumulated GAG (alcian blue staining) (MKI mice; soft tissues (liver, heart, kidney and spleen)) | GALNS delivery to bone growth plate chondrocytes (FITC reporter system) [1] | presence of injected GALNS in tissues (monoclonal anti-human GALNS antibody) ([1]; liver, femur (bone), heart, kidney and spleen) |
| --- | --- | --- | --- | --- | --- | --- |
| murine FGE (SUMF1): murine FGE (SUMF1) gene, mouse FGE ortholog (SEQ ID NO:49) (nucleic acid, listed as Mus musculus) DNA: ATGGTCCCCATTCCTGCTGGAGTATTCACAATGGGCACTGATGATCCTCAGATCAGGCAGGATGGAGAAGCCCCTGCCAGGAGAGTCACTGTTGATGGCTTTTACATGGACGCCTATGAAGTCAGCAATGCGGATTTTGAGAAGTTTGTGAACTCGACTGGCTATTTGACAGAGGCTGAGAAGTTTGGAGACTCTTTCGTCTTTGAAGGCATGTTGAGCGAGCAAGTGAAAACGCATATCCACCAGGCAGTTGCAGCTGCTCCATGGTGGTTGCCTGTCAAGGGAGCTAATTGGAGACACCCAGAGGGTCCGGACTCCAGTATTCTGCACAGGTCAAATCATCCGGTTCTCCATGTTTCCTGGAACGATGCTGTTGCCTACTGCACATGGGCGGGCAAGAGGTTGCCTACTGAGGCAGAGTGGGAATACAGCTGTAGAGGAGGCCTGCAGAACAGGCTTTTCCCCTGGGGCAACAAACTGCAGCCCAAAGGACAGCATTATGCCAACATCTGGCAGGGCAAGTTTCCTGTGAGCAACACTGGCGAGGATGGCTTCCAAGGAACTGCCCCCGTTGATGCCTTTCCTCCCAATGGCTATGGCTTATACAACATAGTGGGGAATGTGTGGGAGTGGACCTCAGACTGGTGGACTGTTCACCATTCTGTTGAGGAAACGTTCAACCCAAAGGGTCCCACTTCTGGGAAAGACCGAGTGAAGAAGGGTGGATCCTACATGTGCCATAAGTCCTATTGCTATAGGTACCGCTGTGCAGCTCGAAGCCAGAACACACCAGATAGCTCTGCATCCAACCTGGGATTCCGATGTGCAGCCGACCACCTGCCCACCGCAGACTGA | active on all three human sulfatases | – | – | – | – | – |
| Drosophila FGE (SUMF1): Drosophila FGE (SUMF1) gene, fruitfly FGE ortholog (SEQ ID NO:51) (nucleic acid, Drosophila melanogaster) DNA: ATGACAACAATTATATTAGTCCTCTTTATTTGGATAGTTTTATTCAATGACGTATCCAGCGACTGTGGCTGCCAAAAGCTCGACCGGAAGGCCCCGGATATGCCGTCCATTTCCGGACAAGTGTGCCAGCAACGAGCACAGGGTGCACACAGCCACTACCGGGATTACTATGGCGAACTGGAGCCAAATATTGCGGACATGTCACTGCTTCCGGGAGGCACGGTTTACATGGGTACTGACAAACCGCACTTTCCGGCCGACCGCGAGGCTCCGGAACGGCAGGTGAAGCTGAATGACTTCTACATCGACAAGTATGAGGTTTCCAACGAAGCCTTTGCGAAGTTTGTTCTGCACACTAACTACACCACGGAGGCTGAGCGATATGGCGACAGTTTTCTGTTTAAGAGCCTTTTGAGCCCATTGGAGCAGAAGAACCTAGAGGACTTCCGAGTGGCGAGCGCTGTCTGGTGGTACAAAGTGGCCGGCGTGAACTGGCGACATCCAAATGGCGTGGACAGCGATATAGACCACTTAGGCCGACACCCGGTAGTGCACGTATCGTGGCGCGACGCTGTGGAGTACTGTAAGTGGGCCGGCAAGCGGTTGCCCAGCGAGGCGGAGTGGGAGGCGGCTTGCAGGGGCGGCAAGGAGCGCAAACTGTTTCCCTGGGGCAACAAGCTGATGCCAAGGAATGAACATTGGCTGAACATCTGGCAGGGAGACTTTCCCGATGGCAACCTGGCTGAAGATGGGTTTGAGTACACCAGCCCCGTGGATGCCTTCCGACAGAATATTTACGACCTGCACAACATGGTGGGCAACGTCTGGGAGTGGACGGCAGATCTGTGGGACGTAAATGACGTTAGCGATAATCCAAATCGGGTCAAGAAGGGCGGTTCTTATCTGTGTCACAAGTCCTACTGCTACAGGTACAGGTGCGCGGCACGCTCGCAGAACACAGAAGACAGTTCAGCCGGTAACCTGGGTTTTCGGTGCGCCAAGAATGCGTGA | less efficient | – | – | – | – | – |
| FGE-activated GALNS: N-Acetylgalactosamine 6-Sulfatase (lysosomal sulfatase) activated by FGE, for enzyme replacement therapy of Morquio disease MPS IVA (protein) APQPPNILLLLMDDMGWGDLGVYGEPSRETPNLDRMAAEGLLFPNFYSANPLCSPSRAALLTGRLPIRNGFYTTNAHARNAYTPQEIVGGIPDSEQLLPELLKKAGYVSKIVGKWHLGHRPQFHPLKHGFDEWFGSPNCHFGPYDNKARPNIPVYRDWEMVGRYYEEFPINLKTGEANLTQIYLQEALDFIKRQARHHPFFLYWAVDATHAPVYASKPFLGTSQRGRYGDAVREIDDSIGKILELLQDLHVADNTFVFFTSDNGAALISAPEQGGSNGPFLCGKQTTFEGGMREPALAWWPGHVTAGQVSHQLGSIMDLFTTSLALAGLTPPSDRAIDGLNLLPTLLQGRLMDRPIFYYRGDTLMAATLGQHKAHFWTWTNSWENFRQGIDFCPGQNVSGVTTHNLEDHTKLPLIFHLGRDPGERFPLSFASAEYQEALSRITSVVQQHQEALVPAQPQLNVCNWAVMNWAPPGCEKLGKCLTPPESIPKKCLWSH | – | reduction of vacuolization | unaffected | reduced or absent alcian blue staining | observed in all growth plate sections examined | detected in all tissues examined |
